Test results published in patent US7696171.
Like-named read-outs stand apart in the source and are kept apart here.

Columns and labels:
FGF receptor (FGFR) [1] = experiment: cell-based or functional assay
FGF receptor (FGFR) [2] = experiment: cell-based or functional assay; remark: listed apart in the source

Row | Substance | mitogenic activity (NIH 3T3 fibroblast proliferation, EC50) (fold reduction) (FGF receptor (FGFR) [1]) | mitogenic activity (NIH 3T3 fibroblast proliferation, EC50) (fold reduction) (FGF receptor (FGFR) [2])
1 | FGF-1 Glu87→Val/Pro134→Val mutant (in the WT* Cys117→Val background) (from UniProt P05230 16-155) (ligand) | 2 | 3
2 | FGF-1 Lys12→Val/Asn95→Val mutant (in the WT* Cys117→Val background) (from UniProt P05230 16-155) (ligand) | – | 1000
